Measurements as given in the supplement of paper PMC9732359.
± gives the uncertainty stated by the source.

Experiment: protein stability index of a GFP-peptide fusion (yeast GPS) (PSI 1-4); higher = more stable; sorted into four equal gates, so the index is relative within each strain
Outline: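 The protein stability index combines read frequencies across sorting gates, each weighted by its gate number and then summed. To obtain those frequencies, a pooled yeast library of GFP fusions to tiled 17-residue yeast protein peptides, on a plasmid also expressing Cherry, was grown to mid-log phase in leucine-free medium. The cells were sorted into four equal gates by GFP/Cherry ratio before plasmid amplification by PCR and Illumina sequencing.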

Row | Sequence | protein stability index (doa10∆) | protein stability index (san1∆) | protein stability index (ubr1∆) | protein stability index (pdr5∆)
1 | SKLIPEVINKEIENATK [RPS1A] | 2.86 ± 0.22 | 2.78 ± 0.23 | 3.16 ± 0.19 | –
2 | HYVVLDTNVVLQAIDLL [DIS3] | 2.53 ± 0.093 | 2.23 ± 0.1 | 2.39 ± 0.064 | 2.49 ± 0.073
3 | LNELETLIKKKQDEKKS [SMC2] | 3.24 ± 0.087 | 3.19 ± 0.063 | 2.91 ± 0.055 | 3.27 ± 0.092
4 | AAVIALGFVLLRDYTTV [RPN2] | 1.59 ± 0.066 | 1.22 ± 0.082 | 1.27 ± 0.048 | 1.21 ± 0.081
5 | EMVKDRGYFITQEEVEL [RPB5] | 2.62 ± 0.071 | 1.74 ± 0.066 | 2.1 ± 0.042 | 2.08 ± 0.071
6 | NYTKDNEYYPMCEQALS [YCS4] | 2.25 ± 0.066 | 2.6 ± 0.071 | 2.47 ± 0.052 | 2.61 ± 0.087
7 | VSIVKLDTQLITLLPSS [SNF12] | 1.73 ± 0.051 | 1.95 ± 0.084 | 1.97 ± 0.051 | 1.9 ± 0.05
8 | RLGEMERDCVIAYGASQ [RET1] | 3.24 ± 0.095 | 2.55 ± 0.13 | 3.22 ± 0.062 | 3.28 ± 0.086
9 | MIELICSSATVPKHMLD [AAR2] | 1.85 ± 0.082 | 1.82 ± 0.11 | 1.94 ± 0.058 | 2.26 ± 0.078
10 | GINKIPPKPRKVLQLLR [RPL7A] | 3.06 ± 0.087 | 3.22 ± 0.061 | 3.15 ± 0.069 | 3.15 ± 0.11
11 | RYFFYLSKINAIQLDYS [RPN3] | 1.31 ± 0.057 | 1.34 ± 0.15 | 1.33 ± 0.044 | 1.23 ± 0.058
12 | VRSLLEVVQTGAKNIEI [PRE6] | 3.38 ± 0.14 | 3.06 ± 0.074 | 3.21 ± 0.069 | 3.29 ± 0.098
13 | SYEKNEDHVEDHRKRKK [LIN1] | 3.25 ± 0.1 | 3.38 ± 0.084 | 3.21 ± 0.054 | 3.36 ± 0.1
14 | IDKLMLSPSDQFAPAFL [SSN2] | 1.99 ± 0.068 | 2.1 ± 0.13 | 2.5 ± 0.09 | 2.24 ± 0.1
15 | NTNLMNGVNVQIDQLNR [GRR1] | 2.85 ± 0.052 | 2.88 ± 0.049 | 2.99 ± 0.05 | 3.06 ± 0.061
16 | DKITLHDEKTLAPSKHQ [SIR4] | – | 2.44 ± 0.2 | 2.92 ± 0.19 | 2.68 ± 0.16
17 | TFANPNRTFTDPPFRIE [TAF14] | 2.35 ± 0.078 | 2.7 ± 0.094 | 2.27 ± 0.039 | 2.76 ± 0.075
18 | QAPKQRRRTYRAHGRIN [RPL17A] | 2.06 ± 0.29 | 1.9 ± 0.18 | 2.09 ± 0.091 | 2.64 ± 0.12
19 | ALAQQKLLTPQDMEAAK [GAL11] | 3.2 ± 0.12 | 3.4 ± 0.1 | 3.32 ± 0.095 | 3.38 ± 0.13
20 | YYSRITLLRLNELLDLT [RPN5] | 2.61 ± 0.067 | 2.44 ± 0.065 | 1.97 ± 0.072 | 1.77 ± 0.048
21 | KQSGFGGQTKPVFHKKA [RPL42A] | 2.74 ± 0.04 | 2.89 ± 0.043 | 3.045 ± 0.029 | 3.14 ± 0.053
22 | AKKLIQSLPPTLKVNRL [RPL38] | 2.15 ± 0.039 | 2.02 ± 0.048 | 2.27 ± 0.036 | 2.2 ± 0.039
23 | KPLGLDRYGNRYFWLDH [ITC1] | 2.77 ± 0.11 | 2.85 ± 0.056 | 2.74 ± 0.086 | 3.02 ± 0.13
24 | VNETEAILYTKPGHVLQ [YGR119C/NUP57] | 3 ± 0.15 | 2.75 ± 0.13 | 3.66 ± 0.21 | 3.12 ± 0.13
25 | TIANSIILHFANFGEIL [YMR153W/NUP53] | 2.15 ± 0.055 | 2.23 ± 0.062 | 2.27 ± 0.062 | 2.38 ± 0.054

Row | Sequence | protein stability index (doa10∆) | protein stability index (san1∆) | protein stability index (ubr1∆) | protein stability index (pdr5∆)
26 | SMCGFEVRILPRQRMEE [PRP8] | 2.29 ± 0.057 | 2.23 ± 0.063 | 2.24 ± 0.049 | 1.87 ± 0.053
27 | QSVYNDEKLKTEKLKND [SRB8] | – | 3.21 ± 0.18 | 3.36 ± 0.22 | 3.74 ± 0.21
28 | TQYKAGKASLFAQGKRR [RPL42A] | 3.35 ± 0.089 | 3.1 ± 0.097 | 3.14 ± 0.1 | 3.04 ± 0.07
29 | NQFKRIDTLLYLMTYPQ [RET1] | 1.4 ± 0.1 | 1.48 ± 0.14 | 1.55 ± 0.067 | 1.44 ± 0.11
30 | MGRMHSAGKGISSSAIP [RPS13] | 2.74 ± 0.043 | 3.11 ± 0.048 | 2.88 ± 0.041 | 2.61 ± 0.068
31 | LSTTPTKSNRRVSHSDT [SIR4] | – | 3.33 ± 0.088 | 3.25 ± 0.2 | 3.06 ± 0.26
32 | FADKKRDCIDISIFSTP [PRP8] | 3.2 ± 0.076 | 2.87 ± 0.055 | 3.24 ± 0.068 | 2.99 ± 0.072
33 | SIATKRFDAQTGSDREV [RPT3] | 3.28 ± 0.13 | 3.17 ± 0.077 | 3.48 ± 0.11 | 3.17 ± 0.1
34 | TKPFENVEKYPTFVEFI [SNU114] | 2.7 ± 0.23 | 2.87 ± 0.11 | 2.86 ± 0.11 | 3.02 ± 0.1
35 | PTETYSDVGGLDKQIEE [RPT5] | 3.36 ± 0.21 | 3.12 ± 0.068 | 3.21 ± 0.13 | 3.35 ± 0.11
36 | FFGPTYYQRLRHMVDDK [RPB2] | 1.24 ± 0.046 | 1.72 ± 0.1 | 1.36 ± 0.053 | 1.26 ± 0.046
37 | SKNSKLSIICVGGHNVT [SIR3] | 1.71 ± 0.069 | 1.39 ± 0.081 | 1.52 ± 0.041 | 1.57 ± 0.039
38 | DGFKIYDNEKTAELIKE [PUP2] | 3.29 ± 0.1 | 3.15 ± 0.061 | 3.18 ± 0.13 | 3.32 ± 0.15
39 | PLLSLDVTPISMFGSDQ [RPN4] | 2.75 ± 0.12 | 3.12 ± 0.13 | 3.18 ± 0.17 | 2.79 ± 0.18
40 | PKNYSLHGLRSFYDAIF [YJL039C/NUP192] | 2.53 ± 0.042 | 2.37 ± 0.043 | 2.4 ± 0.041 | 2.61 ± 0.041
41 | IKKVICGAWEPAITIEK [SIR3] | 2.15 ± 0.094 | 2.47 ± 0.1 | 2.58 ± 0.084 | 2.45 ± 0.087
42 | KLLKSLKNTKYFQQTTI [PRP8] | 2.12 ± 0.076 | 2.34 ± 0.068 | 2.59 ± 0.064 | 2.7 ± 0.085
43 | NILTTHLSHPGTNKDMI [ECM29] | 2.61 ± 0.073 | 2.15 ± 0.09 | 2.05 ± 0.044 | 2.2 ± 0.067
44 | DIINAVNEIMYKCTAAM [MTW1] | 2.73 ± 0.089 | 2.84 ± 0.11 | 2.33 ± 0.072 | 2.77 ± 0.1
45 | RWYQLIATGCKDGRIRI [YGL100W/SEH1] | 2.31 ± 0.065 | 2.18 ± 0.078 | 2.43 ± 0.044 | 2.26 ± 0.057
46 | HGVSFKKRAPRAVKEIK [RPL31A] | – | 2.97 ± 0.17 | 3.2 ± 0.11 | 2.73 ± 0.14
47 | KQDKTLQKVENQTIKEA [YIL149C/MLP2] | 3.22 ± 0.072 | 3.15 ± 0.071 | 3.17 ± 0.062 | 3.15 ± 0.07
48 | YDNGQVFPSSILDITDE [RPP0] | 1.91 ± 0.048 | 2.42 ± 0.093 | 1.32 ± 0.073 | 1.79 ± 0.077
49 | SVLHSWVQLVQIIVTDG [YJL039C/NUP192] | 1.58 ± 0.049 | 1.28 ± 0.085 | 1.54 ± 0.055 | 1.98 ± 0.056
50 | LSKMENVNLDDYPDDSG [NAS6] | 2.75 ± 0.11 | 2.83 ± 0.088 | 3.05 ± 0.091 | 3.02 ± 0.11
